Publication PMC4009770, “A Comparison of Two Single-Stranded DNA Binding Models by Mutational Analysis of APOBEC3G”

Experiments:
Assay in all cases: EMSA; EMSA: 10 mM Tris-HCl pH 7.5, 50 mM NaCl, 0.5% NP-40, 4% glycerol, 1 mM MgCl2, 0.5 mM EDTA, 1 mM DTT, 20 min room temperature, 4 pmol oligo in 20 uL, gel at 4 C; NMR: 50 mM sodium phosphate pH 7.4, 1 mM DTT, 50 uM ZnCl2, 300 uM protein
A3G-S wild type = A3G-S wild type (human, UniProt Q9HC16 1-384); settings: protein: recombinant; tags: C-terminal Strep (STP cleaved by TEV); label: 5' Alexa488; single strand
A3G-S wild type, sequence (Q9HC16 whole entry): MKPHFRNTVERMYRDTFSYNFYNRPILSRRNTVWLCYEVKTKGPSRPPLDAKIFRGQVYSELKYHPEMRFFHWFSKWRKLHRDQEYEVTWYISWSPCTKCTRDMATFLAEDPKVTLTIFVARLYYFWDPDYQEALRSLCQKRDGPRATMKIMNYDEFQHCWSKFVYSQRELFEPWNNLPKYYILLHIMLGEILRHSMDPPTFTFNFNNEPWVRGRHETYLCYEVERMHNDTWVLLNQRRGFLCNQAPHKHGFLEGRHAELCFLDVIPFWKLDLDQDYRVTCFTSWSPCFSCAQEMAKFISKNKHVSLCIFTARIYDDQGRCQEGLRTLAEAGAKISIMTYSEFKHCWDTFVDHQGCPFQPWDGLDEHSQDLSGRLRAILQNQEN

A3G E67Q = A3G E67Q (human, UniProt Q9HC16 1-384, E67Q); settings: protein: recombinant; tags: C-terminal Strep; label: 5' Alexa488; single strand
A3G E67Q, sequence (Q9HC16 whole entry E67Q): as the sequence (Q9HC16 whole entry) above, with E67Q counted along it

A3G R215E = A3G R215E (human, UniProt Q9HC16 1-384, R215E); settings: protein: recombinant; tags: C-terminal Strep; label: 5' Alexa488; single strand
A3G R215E, sequence (Q9HC16 whole entry R215E): as the sequence (Q9HC16 whole entry) above, with R215E counted along it

A3G R313E = A3G R313E (human, UniProt Q9HC16 1-384, R313E); settings: protein: recombinant; tags: C-terminal Strep; label: 5' Alexa488; single strand
A3G R313E, sequence (Q9HC16 whole entry R313E): as the sequence (Q9HC16 whole entry) above, with R313E counted along it

A3G R313E/R320E = A3G R313E/R320E (human, UniProt Q9HC16 1-384, R313E;R320E); settings: protein: recombinant; tags: C-terminal Strep; label: 5' Alexa488; single strand
A3G R313E/R320E, sequence (Q9HC16 whole entry R313E/R320E): as the sequence (Q9HC16 whole entry) above, with R313E, R320E counted along it

A3G R213E/R215E = A3G R213E/R215E (human, UniProt Q9HC16 1-384, R213E;R215E); settings: protein: recombinant; tags: C-terminal Strep; label: 5' Alexa488; single strand
A3G R213E/R215E, sequence (Q9HC16 whole entry R213E/R215E): as the sequence (Q9HC16 whole entry) above, with R213E, R215E counted along it

A3G E259Q = A3G E259Q (human, UniProt Q9HC16 1-384, E259Q); settings: protein: recombinant; tags: C-terminal Strep; label: 5' Alexa488; single strand
A3G E259Q, sequence (Q9HC16 whole entry E259Q): as the sequence (Q9HC16 whole entry) above, with E259Q counted along it

A3G R374E/R376E = A3G R374E/R376E (human, UniProt Q9HC16 1-384, R374E;R376E); settings: protein: recombinant; tags: C-terminal Strep; label: 5' Alexa488; single strand
A3G R374E/R376E, sequence (Q9HC16 whole entry R374E/R376E): as the sequence (Q9HC16 whole entry) above, with R374E, R376E counted along it

Measured: binding result

B1: Alexa488 69-mer (ssDNA)
DNA: GAAGAGGAAGGGAAGAAAGAGAAAGGGAGACCCAAAGAGGAAAGGTGAGGAGGTTAATTTGTGTAAATA
binds: all assays above
